Test results from patent publication US10766960 (dated 2020).
Like-named read-outs stand apart in the source and are kept apart here.

T1: FcgRIIa H (human, UniProt P12318)
T1 chain: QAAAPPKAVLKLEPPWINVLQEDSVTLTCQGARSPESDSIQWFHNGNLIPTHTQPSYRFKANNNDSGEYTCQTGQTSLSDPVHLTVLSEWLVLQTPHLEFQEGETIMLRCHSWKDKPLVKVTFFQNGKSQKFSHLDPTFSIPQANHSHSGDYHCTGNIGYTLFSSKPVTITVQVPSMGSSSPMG

T2: FcgRIIb (human, UniProt P31994)
T2 chain: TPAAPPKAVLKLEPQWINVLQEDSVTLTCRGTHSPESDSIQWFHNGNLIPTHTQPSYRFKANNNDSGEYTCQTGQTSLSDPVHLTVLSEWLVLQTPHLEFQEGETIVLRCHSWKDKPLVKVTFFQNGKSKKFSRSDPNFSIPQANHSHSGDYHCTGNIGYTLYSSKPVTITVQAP

T3: FcgRIIa R (human, UniProt P12318)
T3 chain: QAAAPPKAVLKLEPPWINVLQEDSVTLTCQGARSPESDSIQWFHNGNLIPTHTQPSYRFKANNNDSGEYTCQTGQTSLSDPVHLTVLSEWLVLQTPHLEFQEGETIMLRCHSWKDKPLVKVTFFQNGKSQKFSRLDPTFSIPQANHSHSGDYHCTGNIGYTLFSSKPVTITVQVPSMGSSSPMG

T4: FcgRIa (human, UniProt P12314)
T4 chain: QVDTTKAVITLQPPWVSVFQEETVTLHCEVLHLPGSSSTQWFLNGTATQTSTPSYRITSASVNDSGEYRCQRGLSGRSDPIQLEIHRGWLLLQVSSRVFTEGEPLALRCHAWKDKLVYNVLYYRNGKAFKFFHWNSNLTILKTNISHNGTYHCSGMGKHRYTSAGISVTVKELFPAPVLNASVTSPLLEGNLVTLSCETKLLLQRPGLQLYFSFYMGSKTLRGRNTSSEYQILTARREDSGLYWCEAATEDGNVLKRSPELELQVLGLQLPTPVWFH


Columns and labels:
Assay in all cases: SPR
FcgRIIIa F [1] = biological target: T5, FcgRIIIa F (human, UniProt P08637)
FcgRIIIa V [2] = biological target: T6, FcgRIIIa V (human, UniProt P08637)
FcgRIIa H = biological target: T1, FcgRIIa H
FcgRIIIa F [3] = biological target: T5, FcgRIIIa F; remark: listed apart in the source
FcgRIIb = biological target: T2, FcgRIIb
FcgRIIa R = biological target: T3, FcgRIIa R
FcgRIa = biological target: T4, FcgRIa
FcgRIIIa V [4] = biological target: T6, FcgRIIIa V; remark: listed apart in the source
FcgRIIIa F [5] = biological target: T5, FcgRIIIa F; remark: listed apart in the source

T6 sequence (P08637 17-208 F176V): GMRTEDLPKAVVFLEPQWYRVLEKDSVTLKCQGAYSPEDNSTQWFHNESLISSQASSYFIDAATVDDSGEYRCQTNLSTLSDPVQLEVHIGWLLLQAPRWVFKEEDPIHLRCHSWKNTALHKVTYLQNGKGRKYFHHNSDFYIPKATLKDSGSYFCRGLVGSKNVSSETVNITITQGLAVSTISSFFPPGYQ
T5 sequence (P08637 17-208): as the sequence (P08637 17-208 F176V) above, with V160F counted along it

Kd (FcgRIIIa F [1]) [nM]	Kd (FcgRIIIa V [4]) [nM]	Kd (FcgRIIIa F [5]) [nM]	Binder	other results
1			GpH7-TA54/GpH7-B78/GpL16-k0 (antibody) chain 1: QVQLVQSGAEVKKPGASVTVSCKASGYTFTDYEMHWIRQPPGEGLEWIGAIDPKTGDTAYSESFQDRVTLTADKSTSTAYMELSSLTSEDTAVYYCTRFYSYTYWGQGTLVTVSSASTKGPSVFPLAPSSKSTSGGTAALGCLVKDYFPEPVTVSWNSGALTSGVHTFPAVLQSSGLYSLSSVVTVPSSSLGTQTYICNVNHKPSNTKVDKKVEPKSCDKTHTCPPCPAPEYLWGPDVFLFPPKPKDTLMISRTPEVTCVVVDVSHEDPEVKFNWYVDGVEVHNAKTKPREEQWNATYRVVSVLTVLHQDWLNGKEYKCKVSNKALPAPIEKTISKAKGQPREPQVYTLPPSRKELTKNQVSLTCLVKGFYPSDIAVEWESNGQPENNYKTTPPVLDSDGSFFLYSKLTVDKSRWQQGNVFSCSVMHEALHNRYTQKSLSLSP chain 2: QVQLVQSGAEVKKPGASVTVSCKASGYTFTDYEMHWIRQPPGEGLEWIGAIDPKTGDTAYSESFQDRVTLTADKSTSTAYMELSSLTSEDTAVYYCTRFYSYTYWGQGTLVTVSSASTKGPSVFPLAPSSKSTSGGTAALGCLVKDYFPEPVTVSWNSGALTSGVHTFPAVLQSSGLYSLSSVVTVPSSSLGTQTYICNVNHKPSNTKVDKKVEPKSCDKTHTCPPCPAPELLGGPDVFLFPPKPKDTLMISRTPEVTCVVVDVSHEDPEVKFNWYVDGVEVHNAKTKPREEQYNSTYRVVSVLTVLHQDWLNGKEYKCKVSNKALPLPEEKTISKAKGQPREPQVYTLPPSRDELTKNQVSLTCLVKGFYPSDIAVEWESNGQPENNYKTTPPVLDSDGSFFLYSKLTVDKSRWQQGNVFSCSVMHEALHNHYTQESLSLSP chain 3: DIVMTQSPLSLPVTPGEPASISCQASESLVHSNRNTYLHWYLQKPGQSPQLLIYKVSNRFSGVPDRFSGSGSGTDFTLKISRVEAEDVGVYYCSQNTHVPPTFGQGTKVEIERTVAAPSVFIFPPSDEQLKSGTASVVCLLNNFYPREAKVQWKVDNALQSGNSQESVTEQDSKDSTYSLSSTLTLSKADYEKHKVYACEVTHQGLSSPVTKSFNRGEC	
1.3			GpH7-TA22/GpH7-TA58/GpL16-k0 (antibody) chain 1: QVQLVQSGAEVKKPGASVTVSCKASGYTFTDYEMHWIRQPPGEGLEWIGAIDPKTGDTAYSESFQDRVTLTADKSTSTAYMELSSLTSEDTAVYYCTRFYSYTYWGQGTLVTVSSASTKGPSVFPLAPSSKSTSGGTAALGCLVKDYFPEPVTVSWNSGALTSGVHTFPAVLQSSGLYSLSSVVTVPSSSLGTQTYICNVNHKPSNTKVDKKVEPKSCDKTHTCPPCPAPEYLWGPDVFLFPPKPKDTLMISRTPEVTCVVVDVSHEDPEVKFNWYVDGVEVHNAKTKPREEQYNATYRVVSVLTVLHQDWLNGKEYKCKVSNKALPAPIEKTISKAKGQPREPQVYTLPPSRKELTKNQVSLTCLVKGFYPSDIAVEWESNGQPENNYKTTPPVLDSDGSFFLYSKLTVDKSRWQQGNVFSCSVMHEALHNRYTQKSLSLSP chain 2: QVQLVQSGAEVKKPGASVTVSCKASGYTFTDYEMHWIRQPPGEGLEWIGAIDPKTGDTAYSESFQDRVTLTADKSTSTAYMELSSLTSEDTAVYYCTRFYSYTYWGQGTLVTVSSASTKGPSVFPLAPSSKSTSGGTAALGCLVKDYFPEPVTVSWNSGALTSGVHTFPAVLQSSGLYSLSSVVTVPSSSLGTQTYICNVNHKPSNTKVDKKVEPKSCDKTHTCPPCPAPELLGGPDVFLFPPKPKDTLMISRTPEVTCVVVDVSHEDPEVKFNWYVDGVEVHNAKTKPREEQWNSTYRVVSVLTVLHQDWLNGKEYKCKVSNKALPLPEEKTISKAKGQPREPQVYTLPPSRDELTKNQVSLTCLVKGFYPSDIAVEWESNGQPENNYKTTPPVLDSDGSFFLYSKLTVDKSRWQQGNVFSCSVMHEALHNHYTQESLSLSP chain 3: DIVMTQSPLSLPVTPGEPASISCQASESLVHSNRNTYLHWYLQKPGQSPQLLIYKVSNRFSGVPDRFSGSGSGTDFTLKISRVEAEDVGVYYCSQNTHVPPTFGQGTKVEIERTVAAPSVFIFPPSDEQLKSGTASVVCLLNNFYPREAKVQWKVDNALQSGNSQESVTEQDSKDSTYSLSSTLTLSKADYEKHKVYACEVTHQGLSSPVTKSFNRGEC	

The next lines start with the binder.

Binder	Kd (FcgRIIIa F [1]) [nM]	Kd (FcgRIIIa V [4]) [nM]	Kd (FcgRIIIa F [5]) [nM]	other results
H240-Kn072/H240-Hl076/L73-k0 (antibody) chain 1: QDQLVQSGAEVKKPGASVKVSCKASGFNIKDTYIQWVRQAPGQGLEWMGRIDPLRKQTKYREKFEGRVTITADTSTNTAYMELSSLRSEDTAVYYCVRSGREFDYWGQGTLVTVSSASTKGPSVFPLAPSSKSTSGGTAALGCLVKDYFPEPVTVSWNSGALTSGVHTFPAVLQSSGLYSLSSVVTVPSSSLGTQTYICNVNHKPSNTKVDKKVEPKSCDKTHTCPPCPAPEYYWGPSVFLFPPKPKDTLMISRTPEVTCVVVDVSDEEPEVKFNWYVDGVEVHNAKTKPREEQYNATYRVVSVLTVLHQDWLNGKEYKCKVSNKALPAPIEKTISKAKGQPREPQVCTLPPSRDELTKNQVSLWCLVKGFYPSDIAVEWESNGQPENNYKTTPPVLDSDGSFFLYSKLTVDKSRWQQGNVFSCSVMHEALHNHYTQKSLSLSP chain 2: QDQLVQSGAEVKKPGASVKVSCKASGFNIKDTYIQWVRQAPGQGLEWMGRIDPLRKQTKYREKFEGRVTITADTSTNTAYMELSSLRSEDTAVYYCVRSGREFDYWGQGTLVTVSSASTKGPSVFPLAPSSKSTSGGTAALGCLVKDYFPEPVTVSWNSGALTSGVHTFPAVLQSSGLYSLSSVVTVPSSSLGTQTYICNVNHKPSNTKVDKKVEPKSCDKTHTCPPCPAPELLGGPSVFLFPPKPKDTLMISRTPEVTCVVVDVSHEEPEVKFNWYVDGVEVHNAKTKPREEQYNSTYRVVSVLTVLHQDWLNGKEYKCKVSNDALPMPIEETISKAKGQPREPQVYTLPPSRCELTKNQVSLSCAVKGFYPSDIAVEWESNGQPENNYKTTPPVLDSDGSFFLVSKLTVDKSRWQQGNVFSCSVMHEALHNHYTQKSLSLSP chain 3: DIQMTQSPSSLSASVGDRVTITCRASQDIHKYIAWYQQKPGQAPRLLIQYTSTLQPGVPSRFSGSGSGTDYTFTISSLQPEDIATYYCLQYEQLRTFGGGTKVEIKRTVAAPSVFIFPPSDEQLKSGTASVVCLLNNFYPREAKVQWKVDNALQSGNSQESVTEQDSKDSTYSLSSTLTLSKADYEKHKVYACEVTHQGLSSPVTKSFNRGEC				Kd (FcgRIIIa V [2]): 1 nM; Kd (FcgRIIa H): 130 nM; Kd (FcgRIIIa F [3]): 2.6 nM; Kd (FcgRIIb): 5700 nM; Kd (FcgRIIa R): 710 nM; Kd (FcgRIa): 0.1 nM
H240-AK072/L73-k0 (antibody) chain 1: QDQLVQSGAEVKKPGASVKVSCKASGFNIKDTYIQWVRQAPGQGLEWMGRIDPLRKQTKYREKFEGRVTITADTSTNTAYMELSSLRSEDTAVYYCVRSGREFDYWGQGTLVTVSSASTKGPSVFPLAPSSKSTSGGTAALGCLVKDYFPEPVTVSWNSGALTSGVHTFPAVLQSSGLYSLSSVVTVPSSSLGTQTYICNVNHKPSNTKVDKKVEPKSCDKTHTCPPCPAPEYYWGPSVFLFPPKPKDTLMISRTPEVTCVVVDVSDEEPEVKFNWYVDGVEVHNAKTKPREEQYNATYRVVSVLTVLHQDWLNGKEYKCKVSNKALPAPIEKTISKAKGQPREPQVYTLPPSRKEMTKNQVSLTCLVKGFYPSDIAVEWESNGQPENNYKTTPPVLDSDGSFFLYSKLTVDKSRWQQGNVFSCSVMHEALHNRYTQKSLSLSP chain 2: DIQMTQSPSSLSASVGDRVTITCRASQDIHKYIAWYQQKPGQAPRLLIQYTSTLQPGVPSRFSGSGSGTDYTFTISSLQPEDIATYYCLQYEQLRTFGGGTKVEIKRTVAAPSVFIFPPSDEQLKSGTASVVCLLNNFYPREAKVQWKVDNALQSGNSQESVTEQDSKDSTYSLSSTLTLSKADYEKHKVYACEVTHQGLSSPVTKSFNRGEC		29	300	
H240-BH076/L73-k0 (antibody) chain 1: QDQLVQSGAEVKKPGASVKVSCKASGFNIKDTYIQWVRQAPGQGLEWMGRIDPLRKQTKYREKFEGRVTITADTSTNTAYMELSSLRSEDTAVYYCVRSGREFDYWGQGTLVTVSSASTKGPSVFPLAPSSKSTSGGTAALGCLVKDYFPEPVTVSWNSGALTSGVHTFPAVLQSSGLYSLSSVVTVPSSSLGTQTYICNVNHKPSNTKVDKKVEPKSCDKTHTCPPCPAPELLGGPSVFLFPPKPKDTLMISRTPEVTCVVVDVSHEEPEVKFNWYVDGVEVHNAKTKPREEQYNSTYRVVSVLTVLHQDWLNGKEYKCKVSNDALPMPIEETISKAKGQPREPQVYTLPPSREEMTKNQVSLTCLVKGFYPSDIAVEWESNGQPENNYKTTPPVLDSDGSFFLYSKLTVDKSRWQQGNVFSCSVMHEALHNHYTQESLSLSP chain 2: DIQMTQSPSSLSASVGDRVTITCRASQDIHKYIAWYQQKPGQAPRLLIQYTSTLQPGVPSRFSGSGSGTDYTFTISSLQPEDIATYYCLQYEQLRTFGGGTKVEIKRTVAAPSVFIFPPSDEQLKSGTASVVCLLNNFYPREAKVQWKVDNALQSGNSQESVTEQDSKDSTYSLSSTLTLSKADYEKHKVYACEVTHQGLSSPVTKSFNRGEC		5.3	26	
